Data from PMC11764660, “Self-Assembled Peptide Hydrogels PPI45 and PPI47: Novel Drug Candidates for Staphylococcus aureus Infection Treatment” (Gels, 2025).

Biological target: the molecule itself
Assay: transmission electron microscopy; peptide solution at its CMC on a copper grid, stained with phosphotungstic acid; monomers to fibres

B1: PPI42 (peptide)
chain: GFGCNGPWSEDDMKCHNHCKSIKGYKGGYCAKGGFLCKCY
notes: mutant of the fungal defensin plectasin (40 amino acids); numbers count on: the mature protein; Forms fibrils and gels by self-assembly; also called self-assembling variant PPI42; defensin-derived peptide PPI42; source: Pichia pastoris X-33 (pPICZαA), fermentation supernatant, purified by cation exchange chromatography
B1: binds.

B2: PPI45 (peptide)
chain: GFGCNGPWNEDDMKCHNHCKSIKGYKGGYCAKGGFLCKCY
notes: mutant of the fungal defensin plectasin, derived from PPI42 by S9N; numbers count on: the mature protein; S9N against the parent PPI42; also called PPI45:N9; source: Pichia pastoris X-33 (pPICZαA), fermentation supernatant, purified by cation exchange chromatography
B2: binds.

B3: PPI47 (peptide)
chain: GFGCNGPWSEDDLRCHNHCKSIKGYKGGYCAKGGFLCKCY
notes: mutant of the fungal defensin plectasin, derived from PPI42 by 13M14K to 13L14R; numbers count on: the mature protein; M13L and K14R against the parent PPI42; also called PPI47:L13 R14; source: Pichia pastoris X-33 (pPICZαA), fermentation supernatant, purified by cation exchange chromatography
B3: binds.
